Values of other authors as cited in patent US4786501A, “Cylindrical implants for the controlled release of growth hormones” (International Minerals & Chemical Corp., priority 1985, dated 1988).

B1: native PGH: native porcine growth hormone, protein containing 191 amino acid residues (protein, UniProt P01248 27-216, looked up)
Somatotropin: FPAMPLSSLFANAVLRAQHLHQLAADTYKEFERAYIPEGQRYSIQNAQAAFCFSETIPAPTGKDEAQQRSDVELLRFSLLLIQSWLGPVQFLSRVFTNSLVFGTSDRVYEKLKDLEEGIQALMRELEDGSPRAGQILKQTYDKFDTNLRSDDALLKNYGLLSCFKKDLHKAETYLRVMKCRRFVESSCAF
B2: BGH: bovine growth hormone purified from pituitary glands, protein containing 191 amino acid residues (protein, UniProt P01246 27-217, looked up)
Somatotropin: AFPAMSLSGLFANAVLRAQHLHQLAADTFKEFERTYIPEGQRYSIQNTQVAFCFSETIPAPTGKNEAQQKSDLELLRISLLLIQSWLGPLQFLSRVFTNSLVFGTSDRVYEKLKDLEEGILALMRELEDGTPRAGQILKQTYDKFDTNMRSDDALLKNYGLLSCFRKDLHKTETYLRVMKCRRFGEASCAF

Legend:
young swine = details: field trials
cows = details: field trials, Machlin 1973

Molecule | growth rates (young swine) | feed-to-milk conversion (cows) | milk production (cows)
B1 | increased growth rates |  | 
B2 |  | improved feed-to-milk conversion | increased milk production
